Values of other authors in patent US20120128767A1, “THERAPEUTIC CALCIUM PHOSPHATE PARTICLES AND METHODS OF MAKING AND USING SAME” (priority 2008, published 2012).
Like-named read-outs stand apart in the source and are kept apart here.

insulin
absorption efficiency (insulin added to preformed calcium phosphate particles): about 40%
absorption efficiency (insulin mixed during the particle formation): about 89%
